Drawing on the supplement of paper PMC10065799, “High-throughput profiling of sequence recognition by tyrosine kinases and SH2 domains using bacterial peptide display” (eLife, 2023), this text covers phosphorylation enrichment and SH2 binding enrichment for six sequences.

For one data set, the target named is Jak2 (UniProt O60674). The data set can be described thus: phosphorylation enrichment, bacterial display (enrichment ratio); higher = better substrate or ligand; peptides without Tyr show the background.
Sequence of Jak2 (O60674 whole entry, looked up): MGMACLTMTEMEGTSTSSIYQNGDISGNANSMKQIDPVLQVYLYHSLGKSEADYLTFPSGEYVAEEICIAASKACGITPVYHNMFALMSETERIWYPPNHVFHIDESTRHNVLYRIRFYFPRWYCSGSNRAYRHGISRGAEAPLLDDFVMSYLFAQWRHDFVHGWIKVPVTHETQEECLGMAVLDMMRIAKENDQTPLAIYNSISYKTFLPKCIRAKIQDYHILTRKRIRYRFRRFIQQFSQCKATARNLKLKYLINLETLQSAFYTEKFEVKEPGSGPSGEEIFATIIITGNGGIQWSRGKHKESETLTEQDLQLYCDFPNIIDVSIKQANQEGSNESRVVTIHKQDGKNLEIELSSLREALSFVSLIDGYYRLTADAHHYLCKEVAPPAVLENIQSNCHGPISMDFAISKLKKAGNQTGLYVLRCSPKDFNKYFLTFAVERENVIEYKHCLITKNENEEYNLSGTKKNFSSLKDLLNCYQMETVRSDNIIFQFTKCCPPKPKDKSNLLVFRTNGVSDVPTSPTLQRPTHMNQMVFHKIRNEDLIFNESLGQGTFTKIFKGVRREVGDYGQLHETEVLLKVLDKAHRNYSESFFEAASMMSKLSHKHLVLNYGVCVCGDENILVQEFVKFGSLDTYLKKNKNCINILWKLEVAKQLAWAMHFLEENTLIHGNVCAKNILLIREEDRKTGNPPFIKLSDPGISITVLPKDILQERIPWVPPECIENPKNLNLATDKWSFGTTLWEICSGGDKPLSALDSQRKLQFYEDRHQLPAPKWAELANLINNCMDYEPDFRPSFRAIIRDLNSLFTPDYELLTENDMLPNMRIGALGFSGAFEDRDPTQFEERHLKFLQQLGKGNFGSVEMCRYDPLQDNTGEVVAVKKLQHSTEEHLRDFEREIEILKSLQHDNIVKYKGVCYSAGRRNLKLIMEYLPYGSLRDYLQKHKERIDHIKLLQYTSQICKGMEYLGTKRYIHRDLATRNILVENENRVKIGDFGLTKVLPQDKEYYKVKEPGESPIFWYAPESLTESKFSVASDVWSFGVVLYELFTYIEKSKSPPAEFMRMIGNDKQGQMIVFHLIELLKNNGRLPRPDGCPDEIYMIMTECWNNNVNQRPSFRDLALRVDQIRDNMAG
In a further data set the target is Fyn (UniProt P06241). The data set is described as above.
Sequence of Fyn (P06241 whole entry, looked up): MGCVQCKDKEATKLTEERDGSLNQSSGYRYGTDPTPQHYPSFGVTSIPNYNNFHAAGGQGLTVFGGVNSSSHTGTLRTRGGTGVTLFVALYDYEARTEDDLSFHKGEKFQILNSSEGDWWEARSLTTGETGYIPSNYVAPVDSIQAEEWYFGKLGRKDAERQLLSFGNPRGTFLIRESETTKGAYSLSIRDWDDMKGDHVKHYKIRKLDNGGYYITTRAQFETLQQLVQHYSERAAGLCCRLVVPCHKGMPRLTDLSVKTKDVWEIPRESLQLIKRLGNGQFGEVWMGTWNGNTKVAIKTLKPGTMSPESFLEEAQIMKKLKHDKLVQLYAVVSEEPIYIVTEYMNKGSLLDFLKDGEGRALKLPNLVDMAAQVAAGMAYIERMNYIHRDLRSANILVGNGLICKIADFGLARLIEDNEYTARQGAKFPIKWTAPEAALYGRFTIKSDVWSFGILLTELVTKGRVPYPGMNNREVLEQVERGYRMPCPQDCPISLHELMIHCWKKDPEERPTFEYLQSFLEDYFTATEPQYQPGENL
The subject of a further data set is c-Src. Described as above.
Another data set has as its target MERTK (UniProt Q12866). Described as above.
In another data set the target is Fes (UniProt P07332). The description is as above.
Sequence of Fes (P07332 whole entry, looked up): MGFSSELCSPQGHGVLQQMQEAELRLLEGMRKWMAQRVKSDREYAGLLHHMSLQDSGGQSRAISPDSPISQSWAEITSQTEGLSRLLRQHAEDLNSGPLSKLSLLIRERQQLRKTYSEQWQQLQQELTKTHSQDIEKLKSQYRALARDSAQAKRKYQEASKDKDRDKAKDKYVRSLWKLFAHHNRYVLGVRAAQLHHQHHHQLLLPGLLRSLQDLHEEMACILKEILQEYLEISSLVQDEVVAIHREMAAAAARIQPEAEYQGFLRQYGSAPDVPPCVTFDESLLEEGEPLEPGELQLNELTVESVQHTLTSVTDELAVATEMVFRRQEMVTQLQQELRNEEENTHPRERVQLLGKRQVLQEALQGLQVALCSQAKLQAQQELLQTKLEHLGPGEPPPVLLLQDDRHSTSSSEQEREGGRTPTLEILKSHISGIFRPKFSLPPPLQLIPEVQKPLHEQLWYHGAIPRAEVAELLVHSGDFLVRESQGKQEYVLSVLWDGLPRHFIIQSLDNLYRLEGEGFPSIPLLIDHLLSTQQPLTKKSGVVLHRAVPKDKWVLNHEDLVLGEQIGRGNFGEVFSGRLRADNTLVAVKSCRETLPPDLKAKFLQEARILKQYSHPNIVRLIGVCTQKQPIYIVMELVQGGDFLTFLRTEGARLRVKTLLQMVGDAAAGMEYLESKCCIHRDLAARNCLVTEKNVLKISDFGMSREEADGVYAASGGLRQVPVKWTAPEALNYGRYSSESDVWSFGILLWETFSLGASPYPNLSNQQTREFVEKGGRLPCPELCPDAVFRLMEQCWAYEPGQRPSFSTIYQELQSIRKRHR
The next data set concerns the target EPHB1 (UniProt P54762). Described as above.
For a further data set, the system named is Fer (mouse). Described as above.
The next data set concerns the target FGFR1 (UniProt P11362). Described as above.
Another data set concerns the target FGFR3 (UniProt P22607). Described as above.
In the next data set the test system is c-Abl (mouse). The description is as above.
The subject of a further data set is AncSZ. Described as above.
A further data set addresses Hck (UniProt P08631). Described as above.
The target of the next data set is EPHB2 (UniProt P29323). The description is as above.
Sequence of EPHB2 (P29323 whole entry, looked up): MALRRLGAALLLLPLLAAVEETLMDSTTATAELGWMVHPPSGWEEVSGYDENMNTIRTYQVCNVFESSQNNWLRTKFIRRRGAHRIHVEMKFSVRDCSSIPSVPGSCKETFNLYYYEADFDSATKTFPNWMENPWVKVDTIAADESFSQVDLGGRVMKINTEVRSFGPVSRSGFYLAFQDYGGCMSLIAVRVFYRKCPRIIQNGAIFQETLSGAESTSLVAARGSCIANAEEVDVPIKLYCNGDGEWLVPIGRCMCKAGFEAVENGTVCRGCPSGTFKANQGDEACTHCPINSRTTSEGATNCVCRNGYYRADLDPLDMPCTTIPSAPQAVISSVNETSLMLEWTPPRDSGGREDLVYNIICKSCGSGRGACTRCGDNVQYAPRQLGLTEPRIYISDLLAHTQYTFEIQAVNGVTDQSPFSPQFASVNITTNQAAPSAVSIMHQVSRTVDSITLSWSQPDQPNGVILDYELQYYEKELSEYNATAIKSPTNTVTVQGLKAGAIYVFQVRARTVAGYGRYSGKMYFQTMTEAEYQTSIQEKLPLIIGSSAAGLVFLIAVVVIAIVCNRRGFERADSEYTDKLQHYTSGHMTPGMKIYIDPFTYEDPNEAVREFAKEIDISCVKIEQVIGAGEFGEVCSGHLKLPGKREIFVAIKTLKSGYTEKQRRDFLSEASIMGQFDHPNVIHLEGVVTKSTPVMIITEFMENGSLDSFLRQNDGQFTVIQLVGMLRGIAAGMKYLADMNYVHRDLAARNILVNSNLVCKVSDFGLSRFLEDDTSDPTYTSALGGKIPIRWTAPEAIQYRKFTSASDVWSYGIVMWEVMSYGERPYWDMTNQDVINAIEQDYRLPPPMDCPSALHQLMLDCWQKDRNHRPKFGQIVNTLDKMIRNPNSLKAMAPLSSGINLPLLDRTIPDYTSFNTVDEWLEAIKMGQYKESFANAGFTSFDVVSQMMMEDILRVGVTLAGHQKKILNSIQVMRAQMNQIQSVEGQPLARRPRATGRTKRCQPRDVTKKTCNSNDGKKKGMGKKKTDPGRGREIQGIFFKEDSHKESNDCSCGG
The next data set has as its target Grb2 SH2 (UniProt P62993). Description: SH2 binding enrichment of the phosphorylated peptide, bacterial display (enrichment ratio); higher = better substrate or ligand; peptides without Tyr show the background.
A further data set deals with SHP2-C SH2. The description is as above.
The target in a further data set is c-Src SH2. Described as above.
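For SH2 binding enrichment of the phosphorylated peptide, bacterial display in this document: peptide library displayed on the E. coli surface as eCPX fusions, selected cells deep-sequenced, score is each peptide's frequency after selection divided by its frequency in the input.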
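For phosphorylation enrichment, bacterial display in this document: 11-residue human phosphosite peptides and single-mutation variants displayed on the E. coli surface, counted by deep sequencing, each peptide's frequency after selection divided by its frequency in the unselected input library; frequency after pTyr selection over input frequency; kinase dosed for 20-30% of maximal phosphorylation in three min.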

Sequence of Hck (P08631 whole entry, looked up): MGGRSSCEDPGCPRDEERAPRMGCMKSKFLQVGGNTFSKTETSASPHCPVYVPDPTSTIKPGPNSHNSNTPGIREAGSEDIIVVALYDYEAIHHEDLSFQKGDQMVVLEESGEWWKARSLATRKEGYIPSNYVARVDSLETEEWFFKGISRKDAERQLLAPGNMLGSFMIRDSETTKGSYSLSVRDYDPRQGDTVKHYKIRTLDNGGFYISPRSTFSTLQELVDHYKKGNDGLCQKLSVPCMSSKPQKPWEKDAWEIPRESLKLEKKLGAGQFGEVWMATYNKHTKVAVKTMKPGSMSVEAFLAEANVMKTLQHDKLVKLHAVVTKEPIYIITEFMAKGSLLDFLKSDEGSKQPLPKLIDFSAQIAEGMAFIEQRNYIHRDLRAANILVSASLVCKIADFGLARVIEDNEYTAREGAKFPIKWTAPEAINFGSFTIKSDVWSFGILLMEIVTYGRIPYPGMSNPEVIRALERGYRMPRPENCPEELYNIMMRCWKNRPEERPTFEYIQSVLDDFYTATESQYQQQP
Sequence of FGFR3 (P22607 whole entry, looked up): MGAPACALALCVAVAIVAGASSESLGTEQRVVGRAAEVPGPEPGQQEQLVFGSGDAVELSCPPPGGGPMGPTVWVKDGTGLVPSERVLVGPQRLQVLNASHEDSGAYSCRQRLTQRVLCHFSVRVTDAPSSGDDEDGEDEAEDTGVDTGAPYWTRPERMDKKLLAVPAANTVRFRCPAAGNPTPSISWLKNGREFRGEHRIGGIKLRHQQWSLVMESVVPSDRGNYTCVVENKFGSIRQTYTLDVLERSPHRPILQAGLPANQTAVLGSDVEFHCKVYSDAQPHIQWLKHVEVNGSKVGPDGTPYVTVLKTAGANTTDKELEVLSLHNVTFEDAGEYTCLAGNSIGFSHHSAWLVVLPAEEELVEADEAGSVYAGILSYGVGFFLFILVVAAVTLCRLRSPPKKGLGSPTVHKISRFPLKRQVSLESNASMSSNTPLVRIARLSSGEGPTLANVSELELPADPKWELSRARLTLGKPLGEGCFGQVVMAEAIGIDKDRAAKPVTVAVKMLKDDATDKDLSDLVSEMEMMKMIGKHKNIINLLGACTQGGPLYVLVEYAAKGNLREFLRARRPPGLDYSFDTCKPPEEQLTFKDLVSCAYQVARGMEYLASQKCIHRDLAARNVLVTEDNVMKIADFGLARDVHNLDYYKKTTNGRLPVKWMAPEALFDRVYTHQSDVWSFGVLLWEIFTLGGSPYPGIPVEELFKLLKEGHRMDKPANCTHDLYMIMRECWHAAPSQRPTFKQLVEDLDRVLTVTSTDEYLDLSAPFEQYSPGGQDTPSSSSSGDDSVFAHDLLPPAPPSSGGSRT

Consider QKTGDYYDLYG [PTPN11_Y62_N58K], for which the phosphorylation enrichment is 2.24 in the data set with Jak2; 3.77 in the data set with Fyn; 3.77 with c-Src; 3.24 with MERTK; 1.33 with Fes; 11 in the data set with EPHB1. Moreover, the phosphorylation enrichment stood at 0.586 in the data set on Fer (mouse); 20.8 with FGFR1; 16.2 in the data set with FGFR3; 1.21 in the data set with c-Abl (mouse); 2.31 with AncSZ; 4.6 in the data set with Hck. In addition, the phosphorylation enrichment in the data set with EPHB2 was 6.98. The SH2 binding enrichment came out at 0.899 with Grb2 SH2, 1.04 in the data set with SHP2-C SH2 and 1.38 in the data set with c-Src SH2.
For the sequence SLIEHYEPSET [PLCD1_Y258_R257H], the phosphorylation enrichment is 0.983 with Jak2; 0.513 with Fyn; 0.446 in the data set on c-Src; 0.422 with MERTK; 0.977 with Fes; 0.541 with EPHB1. Also, the phosphorylation enrichment with Fer (mouse) was found to be 0.525; with FGFR1, 0.586; with FGFR3, 0.704; with c-Abl (mouse) it was 0.624; in the data set with AncSZ it was 1.05; in the data set with Hck it was 0.535. In addition, the phosphorylation enrichment with EPHB2 worked out at 0.548. For the same sequence, the SH2 binding enrichment with Grb2 SH2 worked out at 0.927; with SHP2-C SH2, 0.806; in the data set with c-Src SH2, 0.929.
Consider DRLASYLDKAR [KRT14_Y129_V133A], for which the phosphorylation enrichment with Jak2 amounted to 0.627; with Fyn, 0.373; with c-Src, 0.349; with MERTK, 0.378; with Fes, 0.634; in the data set with EPHB1, 0.297. The phosphorylation enrichment in the data set on Fer (mouse) is 0.403; in the data set with FGFR1 it was 0.37; with FGFR3, 0.45; in the data set with c-Abl (mouse) it was 0.914; in the data set with AncSZ, 0.586; with Hck, 0.342. In addition, in the data set with EPHB2, the phosphorylation enrichment was 0.324. Further, the SH2 binding enrichment was 0.874 with Grb2 SH2, 0.59 in the data set with SHP2-C SH2 and 0.419 with c-Src SH2.
On to IRTDAYVWAMT [RPE65_Y89_R91W], for which the phosphorylation enrichment in the data set with Jak2 was 0.904; in the data set with Fyn it was 0.446; in the data set on c-Src it was 0.372; with MERTK, 0.413; with Fes it was 1.11; with EPHB1 it was 0.573. Also, the phosphorylation enrichment in the data set with Fer (mouse) came to 0.554; with FGFR1 it was 0.613; with FGFR3 it was 0.75; with c-Abl (mouse), 0.724; in the data set on AncSZ, 1.07; with Hck, 0.517. Also, the phosphorylation enrichment with EPHB2 was 0.6. The results for the SH2 binding enrichment with Grb2 SH2, in the data set with SHP2-C SH2 and with c-Src SH2 were 0.835, 0.698 and 0.62, respectively.
QMRLKYSQSDL [SMC1A_Y714]: the phosphorylation enrichment with Jak2 was found to be 0.611; in the data set with Fyn, 0.251; in the data set on c-Src it was 0.481; with MERTK it was 0.296; with Fes it was 0.863; in the data set with EPHB1, 0.335. Also, the phosphorylation enrichment with Fer (mouse) is 0.365; with FGFR1, 0.437; with FGFR3 it was 0.453; with c-Abl (mouse), 0.632; in the data set with AncSZ it was 0.704; with Hck it was 0.369. The phosphorylation enrichment with EPHB2 is 0.476. Besides, the SH2 binding enrichment was found to be 0.871 with Grb2 SH2, 0.703 with SHP2-C SH2 and 0.597 in the data set with c-Src SH2.
On to SLESAYPEVSQ [TTF1_Y357_G360V], for which the phosphorylation enrichment with Jak2 was 1.09; in the data set with Fyn, 0.447; with c-Src, 0.523; with MERTK, 0.471; with Fes it was 0.941; with EPHB1 it was 0.514. For the same sequence, the phosphorylation enrichment in the data set with Fer (mouse) came out at 0.4; in the data set with FGFR1, 0.507; with FGFR3, 0.611; in the data set with c-Abl (mouse), 1.55; in the data set on AncSZ, 0.951; in the data set with Hck, 0.858. The phosphorylation enrichment in the data set with EPHB2 was 0.792. The SH2 binding enrichment with Grb2 SH2 worked out at 0.764; in the data set with SHP2-C SH2, 0.607; in the data set with c-Src SH2 it was 0.482.
